One molecule from PMC6136799, “The Npa1p complex chaperones the assembly of the earliest eukaryotic large ribosomal subunit precursor” (PLoS Genetics, 2018) can be followed below.

One assay concerns the target T1, GST-Npa2p (S. cerevisiae, UniProt P47108 1-1174).
T1 construct: Npa2p, S. cerevisiae; NPA2 ORF inserted into XhoI-digested pGEX-6P1 (plasmid pRC58); source: E. coli Rosetta λDE3, purified (Glutathione Sepharose 4 FF)
T1 sequence (looked up): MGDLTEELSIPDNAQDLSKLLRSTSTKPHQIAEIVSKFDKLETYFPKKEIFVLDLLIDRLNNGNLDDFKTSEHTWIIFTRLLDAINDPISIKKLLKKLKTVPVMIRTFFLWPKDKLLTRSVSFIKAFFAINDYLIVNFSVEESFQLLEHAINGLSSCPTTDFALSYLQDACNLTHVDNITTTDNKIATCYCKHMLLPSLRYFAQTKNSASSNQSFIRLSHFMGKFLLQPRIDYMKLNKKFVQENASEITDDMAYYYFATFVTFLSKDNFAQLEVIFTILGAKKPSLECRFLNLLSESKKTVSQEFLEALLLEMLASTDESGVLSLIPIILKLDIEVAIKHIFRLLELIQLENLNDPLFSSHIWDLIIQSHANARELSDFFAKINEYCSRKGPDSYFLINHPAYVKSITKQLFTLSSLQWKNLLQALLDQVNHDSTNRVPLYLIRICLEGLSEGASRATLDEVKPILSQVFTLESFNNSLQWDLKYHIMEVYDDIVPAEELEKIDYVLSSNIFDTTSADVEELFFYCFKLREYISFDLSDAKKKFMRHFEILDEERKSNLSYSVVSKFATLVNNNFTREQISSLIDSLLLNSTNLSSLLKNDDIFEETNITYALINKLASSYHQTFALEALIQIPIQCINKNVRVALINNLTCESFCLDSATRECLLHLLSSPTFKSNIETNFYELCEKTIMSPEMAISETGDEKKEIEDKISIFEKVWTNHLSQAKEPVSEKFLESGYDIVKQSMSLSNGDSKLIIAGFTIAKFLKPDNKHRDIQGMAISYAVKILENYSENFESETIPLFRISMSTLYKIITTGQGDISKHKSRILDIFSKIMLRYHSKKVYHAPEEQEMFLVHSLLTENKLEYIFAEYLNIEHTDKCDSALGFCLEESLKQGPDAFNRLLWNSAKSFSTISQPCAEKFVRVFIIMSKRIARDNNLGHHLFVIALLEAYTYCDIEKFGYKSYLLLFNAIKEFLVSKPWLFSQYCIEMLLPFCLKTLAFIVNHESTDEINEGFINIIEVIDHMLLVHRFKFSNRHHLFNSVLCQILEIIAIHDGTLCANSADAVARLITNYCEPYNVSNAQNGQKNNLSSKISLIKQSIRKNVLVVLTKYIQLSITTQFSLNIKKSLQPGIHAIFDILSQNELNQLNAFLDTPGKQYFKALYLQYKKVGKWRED
Kind of assay: pull-down; 2 μg GST-tagged protein on glutathione magnetic beads, 2 μg His-Dbp6p in 200 μl IP buffer (50 mM Tris-HCl pH 8, 150 mM potassium chloride, 5 mM magnesium chloride, 0.2% Nonidet P-40), 1 h at 16°C; Western with anti-His; also after RNase A treatment. The settings on record: both partners purified.

In the next assay the target is T2, GST-Npa1p (S. cerevisiae, UniProt P34241 1-1764).
T2 construct: Npa1p, S. cerevisiae; NPA1 ORF inserted into XhoI-digested pGEX-6P1 (plasmid pRC59); source: E. coli Rosetta λDE3, purified (Glutathione Sepharose 4 FF)
T2 sequence (P34241 whole entry): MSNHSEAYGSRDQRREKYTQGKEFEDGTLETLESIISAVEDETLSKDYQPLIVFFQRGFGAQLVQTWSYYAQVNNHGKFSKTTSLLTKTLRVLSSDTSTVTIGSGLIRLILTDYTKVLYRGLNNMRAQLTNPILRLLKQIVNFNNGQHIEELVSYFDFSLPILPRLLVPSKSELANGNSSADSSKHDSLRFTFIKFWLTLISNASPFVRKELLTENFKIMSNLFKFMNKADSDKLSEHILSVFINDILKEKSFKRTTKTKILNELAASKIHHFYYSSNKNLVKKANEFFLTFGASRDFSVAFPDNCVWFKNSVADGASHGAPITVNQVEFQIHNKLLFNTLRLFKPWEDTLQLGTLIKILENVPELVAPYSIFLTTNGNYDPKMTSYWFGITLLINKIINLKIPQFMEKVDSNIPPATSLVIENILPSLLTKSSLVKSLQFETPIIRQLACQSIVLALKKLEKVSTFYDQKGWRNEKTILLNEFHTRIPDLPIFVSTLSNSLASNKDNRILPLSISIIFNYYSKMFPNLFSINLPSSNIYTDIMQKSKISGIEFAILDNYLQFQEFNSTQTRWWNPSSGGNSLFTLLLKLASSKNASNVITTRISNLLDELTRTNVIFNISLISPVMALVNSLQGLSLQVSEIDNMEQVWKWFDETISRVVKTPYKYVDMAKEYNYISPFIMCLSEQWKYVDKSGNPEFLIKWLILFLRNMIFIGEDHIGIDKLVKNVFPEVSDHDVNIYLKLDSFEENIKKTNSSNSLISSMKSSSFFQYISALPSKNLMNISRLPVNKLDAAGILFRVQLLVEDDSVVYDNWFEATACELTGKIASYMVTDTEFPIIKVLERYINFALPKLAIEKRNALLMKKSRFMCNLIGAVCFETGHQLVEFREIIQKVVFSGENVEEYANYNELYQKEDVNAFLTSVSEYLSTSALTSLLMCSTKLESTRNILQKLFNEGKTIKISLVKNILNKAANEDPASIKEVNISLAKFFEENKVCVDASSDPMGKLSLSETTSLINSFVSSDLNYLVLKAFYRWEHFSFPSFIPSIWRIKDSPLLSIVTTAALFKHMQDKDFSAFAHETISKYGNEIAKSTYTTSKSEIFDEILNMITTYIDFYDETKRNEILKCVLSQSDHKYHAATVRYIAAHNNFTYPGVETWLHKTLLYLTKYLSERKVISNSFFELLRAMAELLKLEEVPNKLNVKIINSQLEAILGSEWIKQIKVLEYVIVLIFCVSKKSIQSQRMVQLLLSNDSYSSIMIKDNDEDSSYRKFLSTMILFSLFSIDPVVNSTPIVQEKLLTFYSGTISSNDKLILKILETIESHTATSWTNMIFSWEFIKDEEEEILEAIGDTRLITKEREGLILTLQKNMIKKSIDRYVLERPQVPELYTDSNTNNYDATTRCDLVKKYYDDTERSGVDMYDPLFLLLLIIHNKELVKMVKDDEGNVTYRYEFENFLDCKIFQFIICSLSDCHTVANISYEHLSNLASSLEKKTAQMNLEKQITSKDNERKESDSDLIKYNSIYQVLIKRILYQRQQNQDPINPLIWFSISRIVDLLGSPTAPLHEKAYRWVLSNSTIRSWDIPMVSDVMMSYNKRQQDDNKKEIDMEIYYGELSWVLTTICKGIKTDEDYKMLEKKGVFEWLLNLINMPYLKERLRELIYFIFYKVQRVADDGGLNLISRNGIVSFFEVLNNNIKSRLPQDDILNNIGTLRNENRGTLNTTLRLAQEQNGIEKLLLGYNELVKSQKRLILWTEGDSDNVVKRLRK
The assay is described as above. The settings on record: both partners purified.

B1: His-Dbp6p (natural protein, S. cerevisiae, UniProt P53734 1-629, looked up)
chain: MFASRFDPSQLTAPAASAPEGIVGTTPPAIVPLKRQATESDNEEYGSHQDSDESSNSSSEEDEDRMQVDYGASEEDSSEVEEEESKPSTHSTVLSRFKQTVSLQERLGASDIAESKEDEGIEDEAASTHQLKQIPQPEFVKNPMNLNTNSLQFKSTGWLNTEKIYYDNSLIKPFSDYANELEAKLLQNICKNFSTNTFPIQSIILDSILPVLNFTLNVSKRNFTRRIGDILVNAATGSGKTLAYSIPIVQTLFKRQINRLRCIIIVPTKLLINQVYTTLTKLTQGTSLIVSIAKLENSLKDEHKKLSNLEPDILITTPGRLVDHLNMKSINLKNLKFLIIDEADRLLNQSFQGWCPKLMSHLKTDKLDTLPGNVIKMIFSATLTTNTEKLNGLNLYKPKLFLKQTDKLYQLPNKLNEFNINIPTAKSVYKPLILLYSICQFMAHSPIAAKILIFVKSNESSIRLSKLLQLICESRSQSSVLKNLQNLAVSINSVNSNNSKAENKKIVANFSHHSESAGITILITTDIMSRGIDINDITQVINYDPPMSSQQYVHRVGRTARANELGSAYNLLVGRGERTFFDDLNKDLDRDGKSVQPLELDFTLLESDSELYTSSLESLKNYHNNTAQA
notes: Dbp6p, S. cerevisiae; DBP6 ORF cloned into a modified pET-15b (plasmid pET-DBP6); also called His-tagged Dbp6p; source: E. coli Rosetta λDE3, purified (HisTrap FF, Superdex 200)
For B1, the binding result with GST-Npa2p and in the assay with GST-Npa1p was “binds” in each case.
